Reference: patent US20260193366A1 (APOGEE THERAPEUTICS, published 2026)
Numbering of substitutions follows the chain as printed.

B1: Construct 29 (mAb437) (antibody, IgG4, V domains shown)
VH: EVQLVESGGGLEQPGGSLRLSCAGSGFTFRDFAMTWVRQAPGKGLEWVSSISGSGGNIYYADSVKGRFTISRDNSKNTLYLQMNSLRAEDTAVYYCAKDRLSVTVRPRYYGLDVWGQGTTVTVSS
VL: DIVMTQSPLSLPVTPGEPASISCTSSQSLLYSIGYNYVDWYLQKSGQSPQLLIYLGNKRASGVPDRFSGSGSGTDFTLKISRVEAEDVGFYYCMQSLTSPYTFGQGTKLEIK
notes: VH/VL only
B2: Construct 5 (mAb414) (antibody, IgG4, V domains shown)
VH: B1 VH with G56D, L101V, V103I, V105I
VL: B1 VL with T24R, Y35K, T98Q, S99T, T102V
notes: VH/VL only
B3: Construct 2 (mAb411) (antibody, IgG4, V domains shown)
VH: B1 VH with V103K, V105I
VL: B1 VL with S25A, N57S, S96A, S99T
notes: VH/VL only
B4: Construct 1 (mAb410) (antibody, IgG4, V domains shown)
VH: B1 VH with V103K, V105I
VL: B1 VL with T24R, L29V, N57S, T98D, S99T
notes: VH/VL only
B5: Construct 6 (mAb415) (antibody, IgG4, V domains shown)
VH: B1 VH with G56D
VL: B1 VL with T24R, S28G, T98Q, S99T
notes: VH/VL only
B6: Construct 11 (mAb420) (antibody, IgG4, V domains shown)
VH: B1 VH with S54D, G56S, I58T, V103K, V105I
VL: B1 VL with T24R, L29V, T98Q, S99T
notes: VH/VL only
B7: Construct 3 (mAb412) (antibody, IgG4, V domains shown)
VH: B1 VH with G56S, N57S, I58T, V103I
VL: B1 VL with T24R, S96A, S99T
notes: VH/VL only
B8: Construct 10 (mAb419) (antibody, IgG4, V domains shown)
VH: B1 VH with S54D, G56S, I58T, V103K, V105I
VL: B1 VL with T24R, S96A, T98G
notes: VH/VL only
B9: Construct 4 (mAb413) (antibody, IgG4, V domains shown)
VH: B1 VH with V103K, V105I
VL: B1 VL with S25A, K58N, S61T, S96A, S99T
notes: VH/VL only
B10: Construct 9 (mAb418) (antibody, IgG4, V domains shown)
VH: B1 VH with R30T
VL: B1 VL with T24R, Y35K, K58N, S61T, S96A, T98G
notes: VH/VL only
B11: Construct 8 (mAb417) (antibody, IgG4, V domains shown)
VH: B1 VH with G56D
VL: B1 VL with T24R, S26T, Y35K, K58N, S61T, S96A, S99T, T102A
notes: VH/VL only

These binders were tested against T1, hIL-4Rα on cells (human, UniProt P24394 26-825) (assay: cell-based or functional assay).
T1 sequence: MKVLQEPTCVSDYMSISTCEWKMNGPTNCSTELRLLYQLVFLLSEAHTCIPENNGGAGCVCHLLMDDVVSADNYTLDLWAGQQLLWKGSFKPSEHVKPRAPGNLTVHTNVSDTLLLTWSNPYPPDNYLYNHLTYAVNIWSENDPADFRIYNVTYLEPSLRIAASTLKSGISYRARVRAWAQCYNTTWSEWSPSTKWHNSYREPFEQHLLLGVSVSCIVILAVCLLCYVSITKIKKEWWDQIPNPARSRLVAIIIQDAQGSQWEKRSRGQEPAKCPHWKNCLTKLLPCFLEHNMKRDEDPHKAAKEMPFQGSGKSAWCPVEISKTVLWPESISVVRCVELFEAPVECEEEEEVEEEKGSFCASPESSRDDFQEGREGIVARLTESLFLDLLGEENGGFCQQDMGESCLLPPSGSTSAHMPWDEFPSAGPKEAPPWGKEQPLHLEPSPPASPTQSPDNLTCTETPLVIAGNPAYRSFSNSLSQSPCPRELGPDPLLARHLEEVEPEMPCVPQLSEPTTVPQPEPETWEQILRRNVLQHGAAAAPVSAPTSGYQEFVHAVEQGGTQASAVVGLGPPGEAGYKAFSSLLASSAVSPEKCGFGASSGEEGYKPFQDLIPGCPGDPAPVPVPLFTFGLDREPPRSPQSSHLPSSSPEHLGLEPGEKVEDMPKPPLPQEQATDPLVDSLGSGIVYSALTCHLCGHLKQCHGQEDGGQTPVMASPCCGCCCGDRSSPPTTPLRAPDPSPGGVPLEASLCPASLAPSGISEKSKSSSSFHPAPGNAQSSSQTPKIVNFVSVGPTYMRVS

| Binder | Relative Inhibition of IL-4 induced TARC IC50 | Relative Inhibition of IL-13 induced TARC IC50 |
| --- | --- | --- |
| B1 | 0.693 relative to dupilumab | 1.39 relative to dupilumab |
| B2 | 0.552 relative to dupilumab | 0.897 relative to dupilumab |
| B3 | 0.267 relative to dupilumab | 0.314 relative to dupilumab |
| B4 | 0.427 relative to dupilumab | 0.485 relative to dupilumab |
| B5 | 0.879 relative to dupilumab | 1.44 relative to dupilumab |
| B6 | 0.609 relative to dupilumab | 0.877 relative to dupilumab |
| B7 | 0.521 relative to dupilumab | 0.506 relative to dupilumab |
| B8 | 0.556 relative to dupilumab | 0.856 relative to dupilumab |
| B9 | 0.266 relative to dupilumab | 0.614 relative to dupilumab |
| B10 | 0.593 relative to dupilumab | 0.942 relative to dupilumab |
| B11 | 1.11 relative to dupilumab | 1.05 relative to dupilumab |

Biological target: T1, hIL-4Rα on cells
Experiment: cell-based or functional assay
Remark: another data set of the same source

| Binder | Relative Inhibition of IL-4 induced TF-1 Proliferation IC50 | Relative Inhibition of IL-13 induced TF-1 Proliferation IC50 |
| --- | --- | --- |
| B1 | 0.486 relative to dupilumab | 0.851 relative to dupilumab |
| B2 | 0.521 relative to dupilumab | 0.94 relative to dupilumab |
| B3 | 0.376 relative to dupilumab | 0.87 relative to dupilumab |
| B4 | 0.414 relative to dupilumab | 1.37 relative to dupilumab |
| B5 | 0.92 relative to dupilumab | 2.06 relative to dupilumab |
| B6 | 0.455 relative to dupilumab | 1.72 relative to dupilumab |
| B7 | 0.514 relative to dupilumab | 0.683 relative to dupilumab |
| B8 | 0.431 relative to dupilumab | 1.39 relative to dupilumab |
| B9 | 0.442 relative to dupilumab | 1.11 relative to dupilumab |
| B10 | 0.503 relative to dupilumab | 1.34 relative to dupilumab |
| B11 | 0.734 relative to dupilumab | 1.47 relative to dupilumab |

The binders below were run against T1, hIL-4Rα on cells (assay: FACS on HEK293 cells, competitor biotin-hIL-4;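 also: HEK293 cells stably co-expressing hIL-13Rα and hIL-4Rα, stained for 1 h at 4 °C, read-out as mean fluorescence intensity by flow cytometry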).
Description: (§1) Briefly, HEK293 previously transduced to stably express both hIL-13Rα and hIL-4Rα were cultured and harvested. Cells were seeded at 200,000 cells in 100 uL per well. Cells were washed and the supernatant discarded. […] The cells were stained in this mixture at 4° C. for 1 hour. […] Cells were incubated 4° C. for 1 hour, protected from light. Cells were then washed and the MFI of cells in each well were recorded by FACS using a BD FACSCanto II. Subsequent data were analyzed using GraphPad Prism.

| Binder | Relative Blockade of IL-4 Binding IC50 |
| --- | --- |
| B1 | 0.887 relative to dupilumab |
| B2 | 1.01 relative to dupilumab |
| B3 | 0.799 relative to dupilumab |
| B4 | 1.1 relative to dupilumab |
| B5 | 1.16 relative to dupilumab |
| B6 | 0.977 relative to dupilumab |
| B7 | 0.877 relative to dupilumab |
| B8 | 0.992 relative to dupilumab |
| B9 | 1.01 relative to dupilumab |
| B10 | 0.757 relative to dupilumab |
| B11 | 1.01 relative to dupilumab |

The binders below were run against T1, hIL-4Rα on cells (assay: FACS on HEK293 cells, competitor biotin-hIL-13;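 also: stably transduced cells co-expressing both receptor chains, stained cold, with cell-bound signal read as mean fluorescence intensity by flow cytometry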).
Description: as §1

| Binder | Relative Blockade of IL-13 Binding IC50 |
| --- | --- |
| B1 | 0.695 relative to dupilumab |
| B2 | 1 relative to dupilumab |
| B3 | 0.942 relative to dupilumab |
| B4 | 0.968 relative to dupilumab |
| B5 | 0.99 relative to dupilumab |
| B6 | 0.928 relative to dupilumab |
| B7 | 0.949 relative to dupilumab |
| B8 | 0.922 relative to dupilumab |
| B9 | 0.989 relative to dupilumab |
| B10 | 0.911 relative to dupilumab |
| B11 | 0.953 relative to dupilumab |

Biological target: T1, hIL-4Rα on cells
Experiment: cell-based or functional assay
Remark: another data set of the same source

| Binder | Relative Inhibition of IL-4 induced pSTAT6 IC50 | Relative Inhibition of IL-13 induced pSTAT6 IC50 |
| --- | --- | --- |
| B1 | 0.63 relative to dupilumab | 0.624 relative to dupilumab |
| B2 | 0.78 relative to dupilumab | 1.07 relative to dupilumab |
| B3 | 0.507 relative to dupilumab | 0.685 relative to dupilumab |
| B4 | 0.592 relative to dupilumab | 0.671 relative to dupilumab |
| B5 | 0.729 relative to dupilumab | 1.35 relative to dupilumab |
| B6 | 0.638 relative to dupilumab | 0.924 relative to dupilumab |
| B7 | 0.767 relative to dupilumab | 0.66 relative to dupilumab |
| B8 | 0.599 relative to dupilumab | 1.38 relative to dupilumab |
| B9 | 0.493 relative to dupilumab | 0.862 relative to dupilumab |
| B10 | 0.761 relative to dupilumab | 1.31 relative to dupilumab |
| B11 | 1.01 relative to dupilumab | 2.1 relative to dupilumab |

Each binder was assayed against T2, human IL-4Rα (human, UniProt P24394 26-232) (assay: SPR, Carterra LSA;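 also: antibodies captured on an anti-human Fc sensor chip, antigen injected at several concentrations, association and dissociation rates fitted with a 1:1 Langmuir model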).
T2 construct: also called Hu IL-4Rα; hIL-4Rα
T2 sequence: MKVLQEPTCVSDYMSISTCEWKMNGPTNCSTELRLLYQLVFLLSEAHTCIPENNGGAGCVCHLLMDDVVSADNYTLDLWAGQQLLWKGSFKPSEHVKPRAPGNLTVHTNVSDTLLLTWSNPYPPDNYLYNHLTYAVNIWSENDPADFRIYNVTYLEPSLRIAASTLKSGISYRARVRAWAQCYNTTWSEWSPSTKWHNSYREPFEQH

| Binder | KD Relative to Dupilumab | Kd |
| --- | --- | --- |
| B1 | 0.72 | 0.0081 nM |
| B2 | 2.1 | 0.0238 nM |
| B3 | 1.61 | 0.0181 nM |
| B4 | 1.25 | 0.0141 nM |
| B5 | 1.02 | 0.0115 nM |
| B6 | 1.17 | 0.0132 nM |
| B7 | 0.76 | 0.00856 nM |
| B8 | 1.1 | 0.0125 nM |
| B9 | 1.24 | 0.014 nM |
| B10 | 0.76 | 0.00862 nM |
| B11 | 0.83 | 0.0094 nM |

Biological target: T3, cynomolgus monkey IL-4Rα (cynomolgus monkey, UniProt P24394 26-231 (human entry), limits assumed)
T3 construct: also called Cyno IL-4Rα; cyIL-4Rα
T3 chain: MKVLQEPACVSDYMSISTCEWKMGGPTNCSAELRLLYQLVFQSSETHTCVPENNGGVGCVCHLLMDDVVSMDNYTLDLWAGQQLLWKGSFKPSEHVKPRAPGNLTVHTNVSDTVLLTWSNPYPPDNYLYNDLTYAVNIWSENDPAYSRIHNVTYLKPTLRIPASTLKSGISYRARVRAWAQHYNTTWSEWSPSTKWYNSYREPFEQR
Experiment: SPR, Carterra LSA;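 also: antibodies captured on an anti-human Fc sensor chip, antigen injected at several concentrations, association and dissociation rates fitted with a 1:1 Langmuir model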

| Binder | KD Relative to Dupilumab | Kd |
| --- | --- | --- |
| B1 | 0.02 | 15.7 nM |
| B2 | 0.18 | 116 nM |
| B3 | 0.1 | 64.2 nM |
| B4 | 0.17 | 107 nM |
| B5 | 0.09 | 59.5 nM |
| B6 | 0.15 | 92.2 nM |
| B7 | 0.14 | 85.4 nM |
| B8 | 0.18 | 114 nM |
| B9 | 0.2 | 128 nM |
| B10 | 0.36 | 228 nM |
| B11 | 0.25 | 157 nM |
